Reference: patent US20240245805A1 (Orna Therapeutics, Inc., priority 2020, published 2024)

Tested on: HEK293 cells
Type: cell-based, human
Conditions: circular RNA encoding Gluc with the listed IRES (UTR truncated to 675 nt) transfected into HEK293 cells; supernatant after 24 hours

Molecule | Expression (luminescence from secreted Gluc protein)
Hepacivirus B (nucleic acid, Hepacivirus B) DNA: ACCACAAACACTCCAGTTTGTTACACTCCGCTAGGAATGCTCCTGGAGCACCCCCCCTAGCAGGGCGTGGGGGATTTCCCCTGCCCGTCTGCAGAAGGGTGGAGCCAACCACCTTAGTATGTAGGCGGCGGGACTCATGACGCTCGCGTGATGACAAGCGCCAAGCTTGACTTGGATGGCCCTGATGGGCGTTCATGGGTTCGGTGGTGGTGGCGCTTTAGGCAGCCTCCACGCCCACCACCTCCCAGATAGAGCGGCGGCACTGTAGGGAAGACCGGGGACCGGTCACTACCAAGGACGCAGACCTCTTTTTGAGTATCACGCCTCCGGAAGTAGTTGGGCAAGCCCACCTATATGTGTTGGGATGGTTGGGGTTAGCCATCCATACCGTACTGCCTGATAGGGTCCTTGCGAGGGGATCTGGGAGTCTCGTAGACCGTAGCAC | 8.84E+04
Equine hepacivirus (nucleic acid, listed as Hepacivirus sp., lipid formulation) ACCTCCGTGCTATGCACGGTGCGTTGTCAGCGTTTTGCGCTTGCATGCGCTACACGCGTCGTCCAACGCGGAGGGATTCTTCCACATTACCATGTGTCACTCCCCCTATGGAGGGTTCCACCCCGCCCACACGGAAATAGGTTAACCATACCTATAGTACGGGTGAGCGGGTCCTCCTAGGGCCCCCCCGGCAGGTCGAGGGAGCTGAAATTCGTGAATCCGTGAGTACACGGAAATCGCGGCTTGAACGTCATACGTGACCTTCGGAGCCGAAATTTGGGCGTGCCCCACGAAGGAAGGCGGGGGCGGTGTTGGGCCGCCGCCCCCTTTATCCCACGGTCTGATAGGATGCTTGCGAGGGCACCTGCCGGTCTCGTAGACCATAGGAC | 8.40E+04
Zika Virus (nucleic acid, listed as Zika virus, chemistry not fully specified; the letters are possibly those of the target site) DNA: AGTTGTTGATCTGTGTGAGTCAGACTGCGACAGTTCGAGTCTGAAGCGAGAGCTAACAACAGTATCAACAGGTTTAATTTGGATTTGGAAACGAGAGTTTCTGGTC | 8.61E+04
Icavirus (nucleic acid, source: /note="Description of Unknown: Icavirus sequence") DNA: CGAAGTTTAAGCTAAGCACCCTCGGGCGTTCCCGGATTATGTGATCACATCAATTTGATGGCTGGTCACCACGCAACGCCTGGAGAGATACTCTTACTTTTCTCTTAAGATCCCCGGTCATTTGACGCTTGTAGGATGATAGGGTTATTTTCCACTATAAATACTTTCATACTCTTGGATGTTCTATATCCAAGACGGGAGGACCTACCCCGTACCCCTTAGAGGTGAGATGCCAAGAACAGGCCCTTTCTGTTCTCTCGACAATGGCATCATAGGCAACAAGCATCACACCAAGATTGCTAAGTTTTGTTAAGAGTTCTTCAAGCTATAGGGTGGCTGTAGCGACCTTCTGATGCCTGCGGATTTCCCCACGGAGCGATCCGTGCCACAGGGGCCAAAAGCCACGGCTAACGCCCATCAGGAGCGGCACTTACCCCGTGCCCCACCCTTGAAACTTGAATGTTCACACTGGCTTCTCTCGGCTTTCTGAACTGTCTGCTTGTTGGGGCCCCGAAGGATGCCCTGGAGGTACCCCATTTTATGGGATCTGACCAGGGGACACCTCAGCTCTCTAAGTTGCTGGTGTTTAAAAAACGTCTAAGGGCCCCCACCCCTTAGGTGGAGGGATCCACCTTTCCTTTATTTTTTAAAACTCTTTTATGGTCACAATTGTTT | 4.41E+06
Human pegivirus 2: "an IRES is an IRES sequence of ... Human Pegivirus 2" (nucleic acid, listed as Pegivirus sp.) DNA: AACTGTTGTTGTAGCAATGCGCATATTGCTACTTCGGTACGCCTAATTGGTAGGCGCCCGGCCGACCGGCCCCGCAAGGGCCTAGTAGGACGTGTGACAATGCCATGAGGGATCATGACACTGGGGTGAGCGGAGGCAGCACCGAAGTCGGGTGAACTCGACTCCCAGTGCGACCACCTGGCTTGGTCGTTCATGGAGGGCATGCCCACGGGAACGCTGATCGTGCAAAGGGATGGGTCCCTGCACTGGTGCCATGCGCGGCACCACTCCGTACAGCCTGATAGGGTGGCGGCGGGCCCCCCCAGTGTGACGTCCGTGGAGCGCAAC | 3.14E+05
Antarctic penguin virus A (nucleic acid, chemistry not fully specified; the letters are possibly those of the target site) DNA: CTAGGAGACTACGCAGTGGGATAAGATGACTATGATGTCGTACGGGCAGAAGCCAGTACAGTCGAAGTCGAGACCGACGTCGAGGATTTGACTCTGCCTGACCTAGTGCCATC | 8.42E+04
Sakobuvirus A FFUP1 (1x mut) (nucleic acid, lipid formulation) DNA: TCACGCGCTTTTCCGGTGGTCACCCACCGTTAGGGAGCGCCAGCGTTCGCGCTTCCGCTACCAGGTGACACACTCCTTTCCCCTCCCCCATTCCCGTTCCCATCCTCTGGACTGGTTTCTCCTCACGATTGACCAGCAGCTGGGAGCTGTTACCAGACGTTGGACAGTAAGTCCCGGATGCACTATAGGGCTGGTGGCTAGTGCTTGGTAAGCACTCAACGCCATACCTAATGTGTACCTCGGCTTGCCCTCCTGGTCGTGGTGACCGGCTGTTTCTCTTCCCTTGGCTCCAGACGGGCTGGTGTCCTACCACCACCGTTGCATGCAGACCTCCCCCTGCGCACTCGAACGCCCTGTCCCAGCAGGGTTAGTATGTGCTGTGCAGATCTGCATGTGACACCCCATCCACTGGTAGAGCAGGAAGTTGCCCTAGCTAACGCGGCAAGTATTACTTTCCGCTACACGTCCTTGAGATTCCTCGGACCTCTGGAACTAGGGTGACTGTGGGCTTGGGAAAACCCACCTTGGTCCTGTACTGCCTGATAGGGTCGCGGCTGGCCGACCAGTGGATGTAGCCAGTTGTTTTGGGAT | 8.82E+06
Falcon picornavirus (nucleic acid, lipid formulation; source: /note="Description of Unknown: Falcon picornavirus sequence") CGCTTGGAATAAGTTGAGAGGAATTATGCATGCTAGTTGTGTTTGTTTACAACTAATTGTTCTAATCCAAGTGAAGCTCTTCGCTTGGGGCGGCACGACACTTGCCGTAATTCTTCTACCGTCCCTCCACACCTTGTGGATGAAGGGCCGGATGTGTGGCCTCTGGCTAACCCCTCTCTCTGGGGTGATGCTACTGGATGTTTTACTCCTAGACCAAATCACATGAACTCCTCTTGATCCACTTCGGTGGGGCTATGAGCCTGCGGATTAATAGCTGGCGACAGCTACCCCAGGGGCCAAAAGCCACGGTGTTAGCAGCACCCTCATAGTCTGATGCCCAAGGGCTGATGTTGGGAGCTAGTAGTGTGTGTCTGGCCTATGTTTAGGACTTCTGGCCAAGCGCAGAGGAGTGGGGCTGAAGGATGCCCAGAAGGTACCCGTAGGTAACCTTAAGAGACTATGGATCTGATCTGGGGCCCCCTCACGTGGCTTTACCACGTGTTGGGGGTTAAAAAACGTCTAGGCCCCACCAGCCCACGGGAGTGGGCTTTCCCTTAAAAAGCCCAACAATATTTATGGTGACAATTCACTGTTTCTTCTTTGCAATTTTTGTATTCTTGGACTCCTTATTTTTTGTTTGCTTGATTTTAGTGGACATTCAGATTCAAATACAAA | 3.08E+06
Yokose virus (nucleic acid, listed as Yokose virus, lipid formulation) DNA: AGTAAATTTTGCGTGCTAGTCGCTGAGCGTCAGACCGCAAAGTGAGTTTTTAGTGATCTAAAGTGAGGAGTTATTCTTACTGTCATCAAACACTACAAATAAACACGTTGAAATTATTTCCGGAAGAACAACTGTCCGGAATCAAAGACG | 8.55E+04
Human coxsackievirus A2 (nucleic acid, source: /note="Description of Unknown: Human coxsackievirus A2 sequence") DNA: ACCTTTGTGCGCCTGTTTTATATCCCCACCCCGAGTAAACGTTAGAAGTTACGCAACCCCGATCAATAGTAGGTGTAGCACTCCAGCTGCATCGAGATCAAGCACTTCTGTCTCCCCGGACCGAGTATCAATAGACTGCTAACGCGGTTGAAGGAGAAAACGTTCGTTACCCGGCCAATTACTTCGAGAAGCCCAGTAGTGCCGTGAAAGTTGCGGAGTGTTTCGCTCAGCACTTCCCCCGTGTAGATCAGGCTGATGAGTCACCGCGATCCCCACAGGTGACTGTGGCGGTGGCTGCGTTGGCGGCCTGCCTATGGGGCAACCCATAGGACGCTCTAATACAGACATGGTGCGAAGAGCCTATTGAGCTAATTGGTAGTCCTCCGGCCCCTGAATGCGGCTAATCCTAACTGCGGAGCACATGCCCTCAAACCAGGGGGTGGTGTGTCGTAACGGGTAACTCTGCAGCGGAACCGACTACTTTGGGTGTCCGTGTTTCTTTTTATTCTTATAATGGCTGCTTATGGTGACAATTAAAGAATTGTTACCATATAGCTATTGGATTGGCCATCCGGTGACTAACAAATCGCTCATATACCAGTTTGTTGGTTTTGTTCCCTTATCACATACAGCTCATAACACCCTCTTATATTTACTACAATTGAATAGCAAGAA | 7.75E+07
GB virus C/Hepatitis G virus (nucleic acid, lipid formulation; source: /note="Description of Unknown: GB virus C/Hepatitis G virus sequence") CCCCCGGCACTGGGTGCAAGCCCCAGAAACCGACGCCTATCTAAGTAGACGCAATGACTCGGCGCCGACTCGGCGACCGGCCAAAAGGTGGTGGATGGGTGATGACAGGGTTGGTAGGTCGTAAATCCCGGTCACCTTGGTAGCCACTATAGGTGGGTCTTAAGAGAAGGTTAAGATTCCTCTTGTGCCTGCGGCGAGACCGCGCACGGTCCACAGGTGTTGGCCCTACCGGTGGGAATAAGGGCCCGACGTCAGGCTCGTCGTTAAACCGAGCCCGTTACCCACCTGGGCAAACGACGCCCACGTACGGTCCACGTCGCCCTTCAATGTCTCTCTTGACCAATAGGCGTAGCCGGCGAGTTGACAAGGACCAGTGGGGGCCGGGGGCTTGGAGAGGGACTCCAAGTCCCGCCCTTCCCGGTGGGCCGGGAAATGC | 1.36E+05
